Test results taken from publication doi:10.1101/2023.04.24.538129 (bioRxiv, 2023).
Changes are numbered by the printed parent chain. Names may count otherwise.

Molecular target: the molecule itself
Assay: Thioflavin-T fluorescence

B1: human dysferlin C2A domain with the pathogenic mutation W52R (C2A^W52R) (domain or fragment)
chain: MLRVFILYAENVHTPDTDISDAYCSAVFAGVKKRTKVIKNSVNPVWNEGFERDLKGIPLDQGSELHVVVKDHETMGRNRFLGEAKVPLREVLATPSLSASFNAPLLDTKKQPTGASLVLQVSYT
B1: binds.

B2: human dysferlin C2A domain with the pathogenic mutation V67D (C2A^V67D) (domain or fragment)
chain: B1 chain with R52W, V67D
B2: binds.
